Data published in publication PMC4937337.

System: nsp1β;PCBP2 (PRRSV (SD01-08)?;human)
Assay: EMSA
Conditions: EMSA: 10 mM Hepes pH 7.6, 150 mM KCl, 2 mM MgCl2, 1 mM DTT, 0.5 mM ATP, 5% glycerol, 100 µg/ml porcine tRNA, RNase inhibitor; 10 nM RNA; 30°C 10 min (room …)

PRRSV -2/-1 PRF RNA wt (58 nt)
Kd: 130 nM
